{
  "source": "patent US9896489B2",
  "about": "“Family of synthetic polynucleotide-binding peptides and uses thereof” (Eastern Virginia Medical School, priority 2012, dated 2018)",
  "molecules": {"B1": {"name": "Purβ: Pur family protein, GST-tagged, purified from bacterial lysate (protein, UniProt Q96QR8 2-312, looked up)", "Transcriptional regulator …": "ADGDSGSERGGGGGPCGFQPASRGGGEQETQELASKRLDIQNKRFYLDVKQNAKGRFLKIAEVGAGGSKSRLTLSMAVAAEFRDSLGDFIEHYAQLGPSSPEQLAAGAEEGGGPRRALKSEFLVRENRKYYLDLKENQRGRFLRIRQTVNRGGGGFGAGPGPGGLQSGQTIALPAQGLIEFRDALAKLIDDYGGEDDELAGGPGGGAGGPGGGLYGELPEGTSITVDSKRFFFDVGCNKYGVFLRVSEVKPSYRNAITVPFKAWGKFGGAFCRYADEMKEIQERQRDKLYERRGGGSGGGEESEGEEVDED", "modifications": "GST tag", "notes": "Pur family protein, GST-tagged, purified from bacterial lysate"}, "B2": {"name": "Purα: sequence-specific single-stranded DNA-binding protein; GST-tagged, purified from bacteria in the EMSA (protein)", "chain": "MADRDSGSEQGGAALGSGGSLGHPGSGSGSGGGGGGGGGGGGSGGGGGGAPGGLQHETQELASKRVDIQNKRFYLDVKQNAKGRFLKIAEVGAGGNKSRLTLSMSVAVEFRDYLGDFIEHYAQLGPSQPPDLAQAQDEPRRALKSEFLVRENRKYYMDLKENQRGRFLRIRQTVNRGPGLGSTQGQTIALPAQGLIEFRDALAKLIDDYGVEEEPAELPEGTSLTVDNKRFFFDVGSNKYGVFMRVSEVKPTYRNSITVPYKVWAKFGHTFCKYSEEMKKIQEKQREKRAACEQLHQQQQQQQEETAAATLLLQGEEEGEED", "modifications": "left off: a dimerising Fc or GST", "notes": "GST-tagged, purified from bacteria in the EMSA"}, "B3": {"name": "Gst-Purα: GST fusion of Purα expressed in bacteria, bound to glutathione-agarose beads (protein)", "chain": "B2 chain", "modifications": "left off: a dimerising Fc or GST"}},
  "key": {"[1]": {"system": "ALS ssDNA (GGGGCC hexanucleotide repeat expanded at C9ORF72)", "experiment": "Electrophoretic mobility shift assay with ALS ssDNA", "assay_type": "binding", "conditions": "for binding of ALS repeat (qualitative): DNA concentration courses", "procedure": "Infrared oligonucleotides representing a GGGGCC hexanucleotide repeat expanded at C9ORF72 in ALS patients were custom ordered and are referred to as ALS ssDNA. 4% polyacrylamide gel electrophoresis was performed using IR-labeled oligonucleotides and imaged using the Li-Cor Odyssey IR imaging instrumentation and software.\nElectrophoretic Mobility Shift Assay-Various combinations of Purα, Purβ, TZIP, and IR-labeled oligonucleotides were prepared in the 5× Johnson binding buffer (Bergemann, Andrew D and Johnson, Edward M (1992), The HeLa Pur Factor Binds Single-Stranded DNA at a Specific Element Conserved in Gene Flanking Regions and Origins of DNA Replication. Molecular and Cellular Biology, vol 12:3 (1257-1265), incorporated by reference herein in its entirety), adjusted to 5 mM DTT, 5 mM EDTA, and 0.5% Tween 20. 4% polyacrylamide gel electrophoresis was performed on samples and imaged with the Li-Cor Odyssey instrumentation and software. Densitometry was performed on the DNA concentration course experiments using the Li-Cor Odyssey software.\nA Kd value obtained for Purβ was complex and not readily interpretable."}, "[2]": {"system": "FXS ssDNA (G-rich trinucleotide DNA repeats at FMR1)", "experiment": "Electrophoretic mobility shift assay with FXS ssDNA", "assay_type": "binding", "description": "A GE Microspin GST purification module was used to purify GST-tagged Purα and Purβ from bacterial lysate. Polyacrylamide gel electrophoresis with SDS-Page gels and molecular markers were used to verify that GST, Purα, and Purβ were expressed and purified. Expressed proteins were detected using antibodies against Purα and Purβ, including monoclonal mouse anti-Pur antibody developed in Johnson laboratory (clone 10B12) and polyclonal antibody against Purβ (Abcam). Polyacrylamide gel electrophoresis with TBE buffer was used for gel-mobility shift assay. Infrared-labeled oligonucleotides representing G-rich trinucleotide DNA repeats at FMR1 in patients with Fragile X Syndrome (FXS) were custom ordered and are referred to herein as FXS ssDNA. Infrared-labeled oligonucleotide substrates in agarose and polyacrylamide gels were detected through the use of the Odyssey (LICOR) instrumentation and software. […] When Purα and Purβ are combined (FIG. 17), by increasing the amount of Purβ, the DNA is shifted more to the top of the gel. Therefore, there is more binding of the proteins to the DNA. […] In FIG. 19, TZIP enhances the mobility shift of ssDNA FXS in the presence of Purα."}, "[3]": {"system": "ras-transformed and non-transformed NIH3T3 cells", "experiment": "Cell cycle progression (FACS DNA content) in cells stably transfected to over-express Purα", "assay_type": "cell-based", "conditions": "two to five-fold elevated levels of Purα in stably transfected cell lines", "description": "Cells were released from a double thymidine block, which arrests cells upon entry to S phase, into normal growth medium. Samples were subjected to fluorescence-activated cell sorting to determine cellular DNA content.\nStably transfected or co-transfected pools and transfected clones are shown on the right.\nA pool of ras-transformed cells were stably transfected or co-transfected with the following: (a) pBABE, an empty vector; (b) pBABE+pBK, both empty expression vectors; (c) pBABE+pBKPurα, to over-express Purα; (d) pBABE+pBKPurα^low to express Purα at a level near that of endogenous Purα; (e) pBABE+pBKPurα^high to express Purα at a level nearly 5-fold that of endogenous Purα; (f) pEBV, an empty expression vector (g) pEBVPurα to over-express Purα. 4N indicates completion of DNA synthesis."}, "NIH3T3 cells": {"system": "NIH3T3 cells", "experiment": "Purα injected into NIH3T3 cells at cell-cycle transition points", "assay_type": "cell-based", "procedure": "Purα was injected into NIH3T3 cells during various cell-cycle transition points to determine the effects of elevated Purα levels at different phases of the cell cycle. […] In FIG. 2, the clear bar represents dividing cells, the black bar represents non-dividing cells, and the shaded bar represents rapid cell death."}, "[4]": {"system": "ras-transformed NIH3T3 cells", "experiment": "Anchorage independent growth of ras-transformed NIH3T3 cells", "assay_type": "cell-based", "conditions": "pBABE and pBKPurα transfected, puromycin selected", "description": "Purα also antagonizes colony formation and anchorage-independent growth related to ras-transformation of NIH3T3 cells. Ras-transformed cells were transfected with pBABE (empty vector) and either pBK (empty vector) or pBKPurα expression construct and selected for puromycin resistance. Referring to FIG. 4, panel A (pBABE) and panel B (pBABE+pBK) show anchorage independent cell growth."}, "[5]": {"target": "T1, p110^RB, the hypophosphorylated form of Rb (Homo sapiens, UniProt P06400)", "T1 construct": "In proliferating cells, the Rb protein existed in several states of phosphorylation; endogenous in cells; host or cells: WR2E3 cells (inferred as the source of the extract put on the beads)", "T1 sequence (P06400 1-928)": "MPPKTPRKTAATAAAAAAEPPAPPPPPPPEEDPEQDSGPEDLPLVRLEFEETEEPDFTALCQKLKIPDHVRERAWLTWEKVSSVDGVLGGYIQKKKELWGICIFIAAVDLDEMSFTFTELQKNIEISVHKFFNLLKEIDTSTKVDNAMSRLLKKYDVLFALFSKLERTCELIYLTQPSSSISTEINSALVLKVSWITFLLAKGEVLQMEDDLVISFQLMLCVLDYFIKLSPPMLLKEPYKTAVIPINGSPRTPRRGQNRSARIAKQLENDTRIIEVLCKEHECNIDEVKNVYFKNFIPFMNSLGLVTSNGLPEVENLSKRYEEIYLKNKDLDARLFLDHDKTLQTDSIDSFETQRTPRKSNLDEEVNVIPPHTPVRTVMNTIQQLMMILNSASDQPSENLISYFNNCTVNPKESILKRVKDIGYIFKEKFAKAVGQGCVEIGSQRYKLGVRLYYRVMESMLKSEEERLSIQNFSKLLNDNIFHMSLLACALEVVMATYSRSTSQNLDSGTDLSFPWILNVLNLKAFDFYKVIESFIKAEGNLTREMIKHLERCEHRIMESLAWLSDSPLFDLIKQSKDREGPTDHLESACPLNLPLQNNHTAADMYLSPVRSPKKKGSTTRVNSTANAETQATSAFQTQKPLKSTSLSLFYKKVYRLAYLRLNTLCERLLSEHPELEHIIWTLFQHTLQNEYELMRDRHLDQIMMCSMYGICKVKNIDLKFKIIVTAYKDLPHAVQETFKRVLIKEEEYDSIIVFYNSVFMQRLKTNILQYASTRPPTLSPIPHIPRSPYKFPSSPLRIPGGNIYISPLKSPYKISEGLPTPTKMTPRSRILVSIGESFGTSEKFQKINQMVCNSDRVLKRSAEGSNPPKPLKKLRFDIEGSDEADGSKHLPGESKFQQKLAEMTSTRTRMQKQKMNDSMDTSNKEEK", "experiment": "GST bead pull-down of Rb, anti-Rb blot", "assay_type": "binding", "conditions": "protein on glutathione-agarose beads", "procedure": "Rb was detected in extracts of monkey CV-1 cells complexed with Purα. These complexes can be immunoextracted from cell lysates using monoclonal antibodies to either Purα or Rb.\nProteins expressed in bacteria were bound to glutathione-agarose beads. Unfused GST was prepared in the same manner for use as a control. Beads containing equivalent amounts of each protein were used for each lane. Beads were collected, washed, and bound proteins were subjected to electrophoresis. The proteins were then blotted and probed with anti-Rb monoclonal antibody.\nIn contrast, binding of Rb to control GST alone was nil. IPP represents Rb immunoprecipitated from WR2E3 cells using rabbit polyclonal anti-Rb antibody. In proliferating cells, the Rb protein existed in several states of phosphorylation, the hypophosphorylated state, p110^RB, migrating more rapidly on SDS gels (lane 1)."}},
  "data": [
    {"molecule": "B1", "values": [
      {"measurement": "binding of ALS repeat (qualitative)", "setting": "[1]", "result": "bound the ALS repeat to a much smaller degree"},
      {"measurement": "binding / mobility shift of ssDNA FXS (qualitative)", "setting": "[2]", "result": "does not shift the ssDNA FXS as strongly as Purα"}
    ]},
    {"molecule": "B2", "values": [
      {"measurement": "S phase entry and progression", "setting": "[3]", "result": "retarded entry into and progression through S phase"},
      {"measurement": "binding of ALS repeat (qualitative)", "setting": "[1]", "result": "strongly bind the ALS repeat in low concentrations"},
      {"measurement": "Kd", "setting": "[1]; densitometry of DNA concentration course", "result": 16, "unit": "nM"},
      {"measurement": "effect on cell cycle / cell fate", "setting": "NIH3T3 cells; introduction of Purα in G1 phase", "result": "arrested cells at the G1-S boundary, causing programmed cell death"},
      {"measurement": "effect on cell cycle / cell fate", "setting": "NIH3T3 cells; introduction of Purα in later phases, such as G2-M phase", "result": "arrested, but did not prevent, complete replication of the genome"},
      {"measurement": "anchorage independent growth", "setting": "[4]", "result": "repressed anchorage independent growth"}
    ]},
    {"molecule": "B3", "values": [
      {"measurement": "binding to Rb", "setting": "[5]", "result": "bind exclusively to the hypophosphorylated forms of p110^RB"}
    ]}
  ]
}
